One test concerns the target T1, Rae1(31-368)-Nup98(157-213) heterodimer (human, UniProt P78406 31-368; P52948 157-213).
T1 construct: also called Rae1-Nup98; Rae1-Nup98 complex
Description: ITC. The conditions noted are these: both partners purified.
T1 sequence (P78406 31-368, chain 1 of 2): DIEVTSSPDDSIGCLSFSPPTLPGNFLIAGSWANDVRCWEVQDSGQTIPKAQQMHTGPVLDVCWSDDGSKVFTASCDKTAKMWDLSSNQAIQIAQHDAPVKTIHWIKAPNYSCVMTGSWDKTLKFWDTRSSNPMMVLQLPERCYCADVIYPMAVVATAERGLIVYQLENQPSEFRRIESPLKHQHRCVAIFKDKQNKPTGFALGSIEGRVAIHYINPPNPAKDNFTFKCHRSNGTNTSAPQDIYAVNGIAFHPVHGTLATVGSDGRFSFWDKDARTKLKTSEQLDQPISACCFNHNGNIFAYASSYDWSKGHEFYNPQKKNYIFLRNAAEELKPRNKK
T1 sequence (P52948 157-213, chain 2 of 2): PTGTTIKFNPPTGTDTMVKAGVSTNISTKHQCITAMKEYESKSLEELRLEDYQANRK
With YSQLDEEQAMEID (source: synthetic peptide) [SARS-CoV-2 ORF6-P57A], the Ka was 1.12e+06 M⁻¹, binding was characterised by a dissociation constant (Kd) of 0.89 µM and the “stoichiometry N” value was 2.34.
In the same order, the values of YSQLDEEQPMEIA (source: synthetic peptide) [SARS-CoV-2 ORF6-D61A] are 361000 M⁻¹, 2.77 µM and 0.76.
With YSQLDEEQPMEAD (source: synthetic peptide) [SARS-CoV-2 ORF6-I60A], the Ka was 238000 M⁻¹, the Kd turned out to be 4.2 µM and the “stoichiometry N” value amounted to 0.68.
On to YSQLDEEQPMAID (source: synthetic peptide) [SARS-CoV-2 ORF6-E59A], for which the Ka is 606000 M⁻¹, binding was characterised by a dissociation constant (Kd) of 1.65 µM and the “stoichiometry N” value amounted to 0.68.
Regarding YSQLDEEQPLEID (source: synthetic peptide) [SARS-CoV-2 ORF6-M58L], the Ka was found to be 96400 M⁻¹ and the “stoichiometry N” value stood at 1.

Another test concerns the target T1, Rae1(31-368)-Nup98(157-213) heterodimer. Description: ITC. The conditions noted are these: both partners purified. This is another data set of the same source.
For the molecule YSQLAEEQPMEID (source: synthetic peptide) [SARS-CoV-2 ORF6-D53A], the Ka came out at 863000 M⁻¹, the Kd was found to be 1.15 µM and the “stoichiometry N” value was found to be 0.71.
In the same order, the values of YSQLDEAQPMEID (source: synthetic peptide) [SARS-CoV-2 ORF6-E55A] are 1.75e+06 M⁻¹, 0.57 µM and 0.65.
On to YSQLDEEEPMEID (source: synthetic peptide) [SARS-CoV-2 ORF6-Q56E], for which the Ka is 2.08e+07 M⁻¹, the Kd was 0.04 µM and the “stoichiometry N” value was determined as 0.781.
In the same order, the values of YSQLDAEQPMEID (source: synthetic peptide) [SARS-CoV-2 ORF6-E54A] are 1.72e+06 M⁻¹, 0.58 µM and 0.59.

A further test deals with T2, Rae1(31-368)-Nup98(157-213) heterodimer (human, UniProt P78406 31-368; P52948 157-213).
T2 construct: also called Rae1-Nup98; Rae1-Nup98 complex
Description: ITC. The conditions noted are these: both partners purified.
T2 sequence (P78406 31-368, chain 1 of 2): as the sequence (P78406 31-368, chain 1 of 2) above
T2 sequence (P52948 157-213, chain 2 of 2): as the sequence (P52948 157-213, chain 2 of 2) above
As for YSQLDEEQPMEAD (source: synthetic peptide) [SARS-CoV-2 ORF6 C3 peptide I60A], the “fold reduction of binding affinity against SARS-CoV-2 ORF6 C3” value is approximately 17.5 fold.
With YSQLDEEEPMEID (source: synthetic peptide) [SARS-CoV-2 ORF6 C3 peptide Q56E], the “fold increase of binding affinity against SARS-CoV-2 ORF6 C3” value is approximately 6 fold.
As to YSQLDEEQPLEID (source: synthetic peptide) [SARS-CoV-2 ORF6 C3 peptide M58L], the affinity, expressed as Kd, was 10.4 µM.
